Source: PMC9810080

Tests used:
[1] = target: CaM2 peptide, CNGB1 residues 1120–1147 (UniProt Q14028); assay: ITC
[2] = target: CaM1 peptide, CNGB1 residues 565–589 (UniProt Q14028); assay: ITC
Sequence of CaM1 peptide, CNGB1 residues 565–589 (Q14028 565-589): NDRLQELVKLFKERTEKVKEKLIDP

Sequence of CaM2 peptide, CNGB1 residues 1120–1147 (Q14028 1120-1147): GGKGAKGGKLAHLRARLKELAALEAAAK

Calmodulin (CaM), full-length (from UniProt P0DP23 1-149) (natural protein)
dH [1]: 2.1 kcal/mol | dH1 (site 1 of the two-site fit) [1]: -4.5 kcal/mol | stoichiometry N [1]: 2 CaM2 per CaM | Kd of the endothermic site (two-site fit) [2]: 240 µM | apparent Kd of the exothermic site (two-site fit) [2]: 1 µM | dH1 (site 1 of the two-site fit) [2]: -7.5 kcal/mol | stoichiometry N [2]: 2 CaM1 per CaM
